Laboratory results as given in patent US20170369576A1 (UBI US, published 2017).
Values joined by “and” are separate entries in the source; they are usually repeats but may differ in a detail not shown here. Equal values may be shown once.

Experiments:
[1] = target: T1, human CD4, membrane-bound on cells (HPB-ALL cells, blood/PBMC CD4+ T cells, assay target cells) (human, UniProt P01730 26-458); experiment: FACS, fresh blood CD4+ T cells, mean of six subjects; bound dB4 detected by goat anti-hIgG-FITC
T1 construct: whole, on cells; Target on human HPB-ALL T-leukemic cells, human blood CD4+ T lymphocytes and CD4+ indicator cells of the neutralisation assays; also called CD4 receptor; surface CD4
Source text: (§1) The samples were calibrated with reference beads for fluorescence reading.

[2] = target: T1, human CD4, membrane-bound on cells …; experiment: FACS, fresh blood CD4+ T cells of subject F2; free CD4 sites left by dB4 detected by dB4C7-Alexa (250 ng/mL)
[3] = target: T1, human CD4, membrane-bound on cells …; experiment: cell-based or functional assay
[4] = target: T1, human CD4, membrane-bound on cells …; experiment: saturation binding to HPB-ALL cells on ice 1 h; free antibody by ELISA, bound by subtraction, curve fit; exp. 1
Procedure: (§2) The resultant saturating free-vs.-bound concentration profiles were analyzed on SigmaPlot by curve-fitting based on the equation, [B]=Bmax·{[F]/([F]+Kd)}, where the respective [B] and [F] stand for the bound and free concentrations.
(§3) The binding study was conducted at cold and/or under 0.05% azide to avoid a potential endocytosis of the ligand-receptor complexes. Incubation at room temperature or 37° C. could allow a reaction plateau to be reached sooner. […] The supernatants were collected for determination by ELISA of the free drug concentrations, and the bound fractions were obtained by subtraction from the total.

[5] = target: T1, human CD4, membrane-bound on cells …; experiment: FACS direct binding to HPB-ALL cells, on ice 1 h, goat F(ab)2 anti-huIgG Fc-FITC; EC50 by % MFI, exp. 2
Procedure: (§4) On V-bottomed microplates, aliquots of 2×10⁵ cells in 0.1 mL per well were added, centrifuged, and liquid discarded. […] This step was repeated one more time. The cells from the three incubations (passages) were investigated. […] The cells were washed once and the liquid discarded after centrifugation. To each well, aliquots of 200 μL of binding buffer were added and transferred to microdilution tubes for flow cytometric analysis. The binding intensity (mean fluorescence intensity, MFI), based on an inlet of 5,000 cells per sample, was read on FACS.
(§5) The absolute MFI values were also normalized to % MFI for purpose of between-passage comparison.

[6] = target: T1, human CD4, membrane-bound on cells …; experiment: FACS direct binding to HPB-ALL cells, on ice 1 h, goat F(ab)2 anti-huIgG Fc-FITC; EC50 by MFI, exp. 1
Procedure: as §4, §5

[7] = target: T1, human CD4, membrane-bound on cells …; experiment: FACS direct binding to HPB-ALL cells, on ice 1 h, goat F(ab)2 anti-huIgG Fc-FITC; EC50 by % MFI, exp. 1
Procedure: as §4, §5

[8] = target: T1, human CD4, membrane-bound on cells …; experiment: FACS direct binding to HPB-ALL cells, on ice 1 h, goat F(ab)2 anti-huIgG Fc-FITC; EC50 by % MFI, mean of 3
Procedure: as §4, §5

[9] = target: T1, human CD4, membrane-bound on cells …; experiment: FACS direct binding to blood CD4+ T cells of one individual, 4°C 1 h (printed as IC50 here, as EC50 in paragraph 342)
Source text: The MFI values reflect the degree of receptor occupancy, in particular when these values are normalized and expressed as % MFI.

[10] = target: T1, human CD4, membrane-bound on cells …; experiment: FACS, fresh blood CD4+ T cells of subject M1; free CD4 sites left by dB4 detected by dB4C7-Alexa (250 ng/mL)
[11] = target: T1, human CD4, membrane-bound on cells …; experiment: FACS, fresh blood CD4+ T cells of subject F2; bound dB4 detected by goat anti-hIgG-FITC
Source text: as §1

[12] = target: T1, human CD4, membrane-bound on cells …; experiment: comparison of IC50 values, competition FACS on HPB-ALL cells
[13] = target: T1, human CD4, membrane-bound on cells …; experiment: FACS, fresh blood CD4+ T cells of subject M1; bound dB4 detected by goat anti-hIgG-FITC
Source text: as §1

[14] = target: T1, human CD4, membrane-bound on cells …; experiment: FACS, fresh blood CD4+ T cells of subject M3; bound dB4 detected by goat anti-hIgG-FITC
Source text: as §1

[15] = target: T1, human CD4, membrane-bound on cells …; experiment: saturation binding to HPB-ALL cells on ice 1 h; free antibody by ELISA, bound by subtraction, curve fit; mean of 3
Procedure: as §2, §3

B1: mAb dB4C7 (human deimmunized, Fc-aglycosylated IgG1 derived from murine mAb B4, expressed by clone 7) (antibody, V domains shown)
VH: QVQLVQSGPELKKPGASVKVSCKASGYTFTDYVIHWVKQATGQGLEWIGEIYPGSGSAYSNAKFKDRVTMTADKSSNTAYMELSSLTSDDTAVYFCARRGNGTGFAYWGQGTLVTVSS
VL: DIVLTQSPASLAVSLGQRATITCKAGQSVDYDGDSYMNWYQQKPGQPPKLLIYVASNLESGIPARFSGSGSGTDFTLNIHPVEENDAATYYCQQSYKDPLTFGQGTKLEIKR
modifications: N-glycosylated at Asn101 in the Fv; Fc N-glycosylation site removed (N298H)
notes: treated as one molecule; also called deimmunized B4
B1 was tested, and the EC50 [1] was 0.0041 µg/mL, the EC50 [2] was 0.0066 µg/mL and the “IC50 of HIV entry inhibition, pseudotype virus 92TH594 (R5/X4), U87-CD4+/CCR5+/CXCR4+ cells” value [3] was 0.05 µg/mL. For the same binder, the “IC50 of HIV entry inhibition, pseudotype virus HXB2 (X4), U87-CD4+/CCR5+/CXCR4+ cells” value [3] was 0.4 µg/mL, the Kd [4] was 0.057 nM and 0.0086 µg/mL and the EC50 [5] was 0.0457 µg/mL. It also gave an EC50 [6] of 0.0421 µg/mL, an EC50 [7] of 0.0424 µg/mL and an EC50 [8] of 0.0429 µg/mL. For the same binder, the EC50 [9] was 0.023 µg/mL, the EC50 [10] was 0.0048 µg/mL and the EC50 [11] was 0.0057 µg/mL. The “fold binding affinity against gp120 MN” value [12] was ≥ 50 fold, the EC50 [13] was 0.0037 µg/mL and the EC50 [14] was 0.0026 µg/mL. For the same binder, the Kd [15] was 0.0085 µg/mL and 0.056 nM.
